Laboratory results reported in US20230295310A1 (ABCELLERA BIOLOGICS, published 2023).
Positions count from the first letter of the chain named.

B1: mAb 130 (antibody, V domains shown)
VH: EVQLVESGGGLVKTGGSLRLSCVASGFSFKKAWMNWVRQAPGKGLEWVGRIKRNSDGGATDYAAPVKDRFTLSRDDSKNTLYLQMNSLKTEDTAVYYCTTLDSSSWYVGYYYMDVWGKGTTVTVSS
VL: DIHMTQSPSSVSASLGDRVTFTCRASQDINNWLAWYQQRPGKAPKLLIYTASSLQSGVPSRFSGSGSGTDFTLTISSLQPEDFATYYCQQAHSLPITFGQGTRLGIK
B2: mAb 140 (antibody, V domains shown)
VH: QVQLVESGGGVVQPGRSLRLSCAASGFTFSTYGMHWVRQAPGKGLEWVAVIWYDGSHKYYADSVKGRFTISRDNSKNTLYLQMNSLRAEDTAVYYCARTGITGTTAYFYFDYWGQGTLVTVSS
VL: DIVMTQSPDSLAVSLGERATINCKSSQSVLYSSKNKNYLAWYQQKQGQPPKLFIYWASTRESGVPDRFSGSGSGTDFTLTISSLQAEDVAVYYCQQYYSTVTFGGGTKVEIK
notes: VH and VL only
B3: mAb 171 (antibody, V domains shown)
VH: EVQLVESGGGLVQPGRSLRLSCAASGFTFADYTMHWVRQAPGQGLEWVSGISWNSGSIDYADSVKGRFIISRDNAKKTLYLQMNSLRAEDTALYYCAKDSSGYGHYYFYYLDVWGKGTTVTVSS
VL: EIVMTQSPATLSVSPGERATLSCRASQSVSSNLAWYQQKPGQAPRLLIYSTSTRATGIPARFSGSRSGTEFTLTISSLQSEDSAVYYCQQYNNWPHFGQGTRLEIK
notes: VH and VL only
B4: mAb 121 (antibody, V domains shown)
VH: B3 VH with A24T, Q43K, I69T, T78S, Y95F
VL: B3 VL with A9G, E17K, A43G, R66G, Q90H
notes: VH and VL only
B5: mAb 158 (antibody, V domains shown)
VH: B3 VH with A40V, Q43K, I58V, I69T
VL: B3 VL with S26T
notes: VH and VL only
B6: mAb 161 (antibody, V domains shown)
VH: B3 VH with F27I, Q43K, I69T, S85R
VL: B3 VL with S31N
notes: VH and VL only
B7: mAb 128 (antibody, V domains shown)
VH: B3 VH with A30D, Q43K, D59G, I69T, K77N, T78S, H105Y, F108Y, Y110S, L111M
VL: B3 VL with S50G, T51A, R66G, S83F, Q90L, N92Y, E104A
notes: VH and VL only
B8: mAb 118 (antibody, V domains shown)
VH: EVQLVESGGGLVQPGRSLRLSCAASGFTFDDYTMHWVRQAPGKGLEWVSGISWNSGSIGYADSVKGRFTISRDNAKNSLYLQMNSLRAEDTALYYCSKDSSGYGYYLNYSLDVWGKGTTVTVSS
VL: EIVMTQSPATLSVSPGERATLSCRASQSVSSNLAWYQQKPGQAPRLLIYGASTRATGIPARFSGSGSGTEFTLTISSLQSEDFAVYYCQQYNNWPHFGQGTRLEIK
notes: VH and VL only
B9: mAb 126 (antibody, V domains shown)
VH: B8 VH with D30N, A40V, G59D, S97A, L107Y, N108Y, S110Y, L111M
VL: B3 VL with S31I, S50G, T51A, R66G, S83F, Q90L, N92H
notes: VH and VL only
B10: mAb 160 (antibody, V domains shown)
VH: EVQLVESGGGLVQPGRSLRLSCAVSGFTFNDYTMHWVRQVPGKGLEWVSGISWNSGSIGYADSVKGRFTISRDNAKNSLYLQMNSLRAEDTALYFCAKDSSGYGHYYYYYMDVWGRGTTVTVSS
VL: B3 VL with S30R, S31K, S50G, T51A, R66G, S83F, Q90L
notes: VH and VL only
B11: mAb 162 (antibody, V domains shown)
VH: B8 VH with D31N, T33A, Q82E, M83L, S97A, L107Y, S110Y, L111M
VL: B3 VL with S30R, S50G, T51A, R61K, R66G, S83F, Q90Y, N92Y
notes: VH and VL only
B12: mAb 170 (antibody, V domains shown)
VH: B8 VH with Q13R
VL: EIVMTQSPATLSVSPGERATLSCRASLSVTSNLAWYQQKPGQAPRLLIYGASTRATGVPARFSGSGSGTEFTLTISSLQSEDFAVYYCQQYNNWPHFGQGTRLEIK
notes: VH and VL only
B13: mAb 167 (antibody, V domains shown)
VH: EVHLVESGGGLVQPGRSLRLSCAASGFTFDDYAMHWVRQAPGKGLEWVSGISWNSGTIGYADSVKGRFTISRDNAKNSLYLEMNSLRAEDTALYYCAKDSSGYGHYYHYYIDVWGTGTTVTVSS
VL: B3 VL with E17G, S30G, S50D, T51A, S63R, R66G, S77G, S83F, Q90L, N92Y
notes: VH and VL only
B14: mAb 172 (antibody, V domains shown)
VH: B10 VH with A23T, V24T, N30D, G50D, I58V, F95Y, A97V, Y107F, Y108H, R116K
VL: DIQMTQSPSSLSASVGDRVTITCRASQSISNYLNWYQVKPGKAPKVLIYAASSLQSGVPSRFSGSGSGTDFTLTISSLQPEDFVSYYCHQSYNAPITFGQGTRLESK
notes: VH and VL only
B15: mAb 173 (antibody, V domains shown)
VH: B8 VH with A40V, G50D, I58V, S97V, Y105H, L107F, N108H, S110Y, L111M
VL: B14 VL with A94T, S106I
notes: VH and VL only
B16: mAb 176 (antibody, V domains shown)
VH: EVELVESGGGLVQPGRSLRLSCAASGFKFDDYTMHWVRLPPGKGLEWVSGISWNSGTIDYGDSVKGRFTISRDNAKNSLYLQMNSLRVEDTALYYCAKDTSGYGHYFYYYMDVWGKGTTVTVSS
VL: DIQMTQSPSSLSASIGDRVSITCRTSQIINNYLNWYQQKPGKAPKVLIYSASSLQSGVPSRFSGSGSGTDFTLTINSLQPEDFATYYCQQSYNFPITFGQGTRLELK
notes: VH and VL only
B17: mAb 177 (antibody, V domains shown)
VH: EVQLVESGGGLVQPGMSLRLSCAASGFTFDDYTMHWVRQSPGKGLEWVAGISWNSGTIGYGDSMKGRFTISRDNAKNSLDLQMNSLRVEDTALYYCAKDTSGYGHYYYYFMDVWGKGTTVTVSS
VL: B16 VL with V46L, I75L, N76S, Y87F
notes: VH and VL only; The printed VL holds a letter 'U'
B18: mAb 178 (antibody, V domains shown)
VH: B13 VH with H3Q, A33T, G50D, E82Q, A97V, H108K, I111M, T116K
VL: DIQMTQSPSSLSASVGDRVTITCRASQSISNYLNWYQQKAGKVPKVLIYGSSSLQSGVPSRFSGSGSGTDFTLTISSLQPEDFASYYCQQTYSSPLTFGGGTKVDFK
notes: VH and VL only
B19: mAb 179 (antibody, V domains shown)
VH: B8 VH with A40T, G50D, S78T, S97V, Y105H, N108Y, S110Y, L111M
VL: DIQMTQSPSSLSASVGDRVTITCRASQSIRNYLNWYQQSPGRAPKLLIFSASSLQSGVPSRFSGSGSGTDFTLTISSLQPEDFVTYYCQQRYSTPITFGQGTRLEIK
notes: VH and VL only
B20: mAb 228 (antibody, V domains shown)
VH: EVQLLESGGGLVQPGGSLRLSCAASGFTFSNYAMNWVRQAPGKGLEWVSTISGSGGGKYYADSVKGRFTISRDNSKNTLYLHMNSLRAEDTAVYYCAKDPVQDRYYFYYYYMDVWGKGTTVTVSS
VL: EIVLTQSPDFQSVTPKEKVTITCRASQSIGSSLHWYQQKPDQSPKLLIKYASQSISGVPSRFSGSGSGTDFTLTINSLEAEDAAAYYCHQSSSLPHTFGQGTKLEIK
notes: VH and VL only
B21: mAb 230 (antibody, V domains shown)
VH: B20 VH with N31S, N35S, T50S, G57S, K58R, H82Q
VL: B20 VL
notes: VH and VL only
B22: mAb 240 (antibody, V domains shown)
VH: QGKLVESGGGVVQPGRSLRLSCVASGFTFSGYGMHWVRQAPNKGLEWVAIIYYDGKNKYYADSVKGRFTISRDNSKNTLYLQLNSLRAEDTAVYYCVRGPGYNWFDPWGQGTLVTVSS
VL: B20 VL with S28N, Y50H, I55F, A85T, H96Y
notes: VH and VL only
B23: mAb 258 (antibody, V domains shown)
VH: EVQLLESGGGLVQPGGSLRLSCAASGFTFSNYAMNWVRQAPGKGLEWVSVISNSGGTRLYVDSVKGRFTISRDNSKNTLYLQMSSLRAADTAVYYCAKDAAAALYYYYFYYMDVWGKGTTVTVSS
VL: B20 VL with I55F, A85T, H96Y
notes: VH and VL only
B24: mAb 284 (antibody, V domains shown)
VH: EVQLLESGGGLVQPGGSLRLSCAASGFTFSSYAMSWVRQAPGKGLEWVSAISGSSGRTYYTDSVKGRFTISRDNSKNTLSLQMNSLRAEDTAVYYCAKKYSYYYYYMDVWGKGTTVTVSS
VL: SYELTQPLSVSVALGQTAKITCGGNNIGSKNVHWYQQKPGQAPVLVIYRDSNRPSGIPERFSGSNSGNTATLTISRAQAGDEADYYCQVWDSSTAVFGGGTQLTAL
notes: VH and VL only
B25: mAb 285 (antibody, V domains shown)
VH: B24 VH with V12G, S31N, A50V, S55G, R57D, T58K, Y59N, T61A, S80Y
VL: B24 VL with K19R, N31D, R76S, S93R
notes: VH and VL only
B26: mAb 301 (antibody, V domains shown)
VH: EVQLLESGGGLVQPGGSRRLSCAASGFTFSSYAMSWVRQAPGKGLEWVSVISGRGDNTNYADSVKGRFTISRENSKNMLYLQMNSLRAEDTAVYYCAKKYSYYYYYMDVWGKGTTVTVSS
VL: B24 VL with K19R, N31D, S93R
notes: VH and VL only
B27: mAb 304 (antibody, V domains shown)
VH: B26 VH with M78I
VL: B24 VL with K19R, N31D, S93R
notes: VH and VL only
B28: mAb 316 (antibody, V domains shown)
VH: B26 VH with S30R, S31T, S52N, N57D, E73D, M78I, Y80F
VL: B24 VL with K19R, N31D, S93R
notes: VH and VL only

Each binder was assayed against human CD3 (human, UniProt P07766 23-207; P04234 22-171; P09693 23-182) (assay: cell-based or functional assay).
Sequence of human CD3 (P07766 23-207, chain 1 of 3): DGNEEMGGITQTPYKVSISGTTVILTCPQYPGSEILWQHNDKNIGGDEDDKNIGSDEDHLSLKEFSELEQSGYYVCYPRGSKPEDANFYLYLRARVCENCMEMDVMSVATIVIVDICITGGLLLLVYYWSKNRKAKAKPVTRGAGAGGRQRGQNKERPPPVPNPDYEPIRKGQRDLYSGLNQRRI
Sequence of human CD3 (P04234 22-171, chain 2 of 3): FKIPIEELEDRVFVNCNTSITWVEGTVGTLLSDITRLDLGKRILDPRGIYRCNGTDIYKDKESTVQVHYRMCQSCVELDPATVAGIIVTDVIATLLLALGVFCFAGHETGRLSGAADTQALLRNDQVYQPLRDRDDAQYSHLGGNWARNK
Sequence of human CD3 (P09693 23-182, chain 3 of 3): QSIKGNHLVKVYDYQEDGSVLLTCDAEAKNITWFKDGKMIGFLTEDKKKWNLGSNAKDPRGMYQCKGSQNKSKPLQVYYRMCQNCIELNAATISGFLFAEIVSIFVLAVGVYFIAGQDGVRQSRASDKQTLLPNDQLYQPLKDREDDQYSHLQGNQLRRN
For B1, the “CD4 EC50 (nM); CD69/CD25 on human T cells, plate-coated antibody” value was 10.9 nM and the “CD8 EC50 (nM); CD69/CD25 on human T cells, plate-coated antibody” value was 10.8 nM.

What follows are binders tested against T1, human CD3e/d (human, UniProt P07766 23-126; P04234 22-105) (assay: SPR (Carterra LSA), mAb on chip).
T1 construct: Bought soluble protein; also called hCD3e/d; human CD3/ed (Sino CT038-H2508H)
T1 sequence (P07766 23-126, chain 1 of 2): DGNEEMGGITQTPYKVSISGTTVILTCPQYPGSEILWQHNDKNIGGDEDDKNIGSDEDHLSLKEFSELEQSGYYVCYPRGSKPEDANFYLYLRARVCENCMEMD
T1 sequence (P04234 22-105, chain 2 of 2): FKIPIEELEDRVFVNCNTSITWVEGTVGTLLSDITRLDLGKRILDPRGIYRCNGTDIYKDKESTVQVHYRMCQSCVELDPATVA
Procedure: High-throughput surface plasmon resonance (SPR) coupled kinetic experiments were performed on a Carterra LSA® instrument equipped with an HC-30M chip type (Carterra, USA). The instrument uses two microfluidic modules, a single-flow cell (SFC) and a 96 printhead, to deliver samples to the chip surface via back-and-forth cycling of a fixed sample volume. An up to 384-ligand array is generated by docking the MFC onto each of the four nested print block locations in a serial manner.
The purified mAbs were immobilized on a Carterra LSA® HC-30M chip by direct coupling. The chip surface was first activated by flowing a freshly prepared 1:1:1 activation mix of 100 mM MES pH 5.5, 100 mM S-NHS, 400 mM EDC for 7 min. mAbs diluted to 10 μg/mL in 10 mM NaOAc pH 4.25+0.01% TWEEN®20 were then injected and printed onto the chip surface simultaneously using the MFC printhead for 10 min. Finally, the chip surface was quenched by flowing 1 M ethanolamine for 7 min (to block the excess reactive esters), followed by 2 wash steps of 15 s each in 25 mM MES pH 5.5. In addition to expressed and purified mAbs, relevant benchmarks and negative control mAbs were also printed on the chip surface.
The data were analyzed using the Carterra Kinetics analysis software. Briefly, the data were referenced with the interstitial reference spots and double-referenced to a buffer cycle, and then fit globally to a 1:1 Langmuir binding model to determine their apparent association (ka) and dissociation (kd) kinetic rate constants and binding affinity constants (KD).
Binder B2 has a Kd of 635 nM. B3 was tested, and the Kd was 18.4 nM. In the case of B4, the Kd is reported as 21 nM. B5 was tested, and the Kd was 10.3 nM. B6 was tested, and the Kd was 24.1 nM. B7 showed a Kd of 186 nM. Binder B8 has a Kd of 101 nM. B9 gave a Kd of 9.72 nM. Work on B10 yielded a Kd of 15.2 nM. Binder B11 has a Kd of 19.4 nM. For B12, the Kd was 71.9 nM. For B13, the Kd was 6.26 nM. In the case of B14, the Kd is reported as 4.83 nM. B15 gave a Kd of 7.11 nM. B16 showed a Kd of 3.49 nM. For B17, the Kd was 41.1 nM. B18 showed a Kd of 0.992 nM. Work on B19 yielded a Kd of 7.72 nM. B20 gave a Kd of 25 nM. Binder B21 has a Kd of 18 nM. In the case of B22, the Kd is reported as 18 nM. Work on B23 yielded a Kd of 24 nM. Work on B24 yielded a Kd of 450 nM. B25 showed a Kd of 150 nM. With B26 the Kd was 110 nM. Work on B27 yielded a Kd of 120 nM. B28 was tested, and the Kd was 70 nM.
